Measured values taken from patent EP2283866A2.

Target: human HER2 (ErbB2) (human) (UniProt P04626)
Assay: cell-based or functional assay

inhibition of SK-BR-3 relative cell proliferation (crystal violet, 72 h, 5 ug/ml antibody): 56% | maximum inhibition of cell proliferation in SK-BR-3 cells: 66%
Substance: murine monoclonal antibody 4D5 (ATCC CRL 10463)
